Data taken from patent US9725708B2, “Methods of modulating ubiquitin ligase activity” (Board of Supervisors of Louisiana State University and …, priority 2012, dated 2017).

Biological target: T1, E6APD543A (Homo sapiens, UniProt Q05086, D566A)
T1 construct: made in house; host or cells: E. coli
T1 sequence (Q05086 1-872 isoform Q05086-3 D563A): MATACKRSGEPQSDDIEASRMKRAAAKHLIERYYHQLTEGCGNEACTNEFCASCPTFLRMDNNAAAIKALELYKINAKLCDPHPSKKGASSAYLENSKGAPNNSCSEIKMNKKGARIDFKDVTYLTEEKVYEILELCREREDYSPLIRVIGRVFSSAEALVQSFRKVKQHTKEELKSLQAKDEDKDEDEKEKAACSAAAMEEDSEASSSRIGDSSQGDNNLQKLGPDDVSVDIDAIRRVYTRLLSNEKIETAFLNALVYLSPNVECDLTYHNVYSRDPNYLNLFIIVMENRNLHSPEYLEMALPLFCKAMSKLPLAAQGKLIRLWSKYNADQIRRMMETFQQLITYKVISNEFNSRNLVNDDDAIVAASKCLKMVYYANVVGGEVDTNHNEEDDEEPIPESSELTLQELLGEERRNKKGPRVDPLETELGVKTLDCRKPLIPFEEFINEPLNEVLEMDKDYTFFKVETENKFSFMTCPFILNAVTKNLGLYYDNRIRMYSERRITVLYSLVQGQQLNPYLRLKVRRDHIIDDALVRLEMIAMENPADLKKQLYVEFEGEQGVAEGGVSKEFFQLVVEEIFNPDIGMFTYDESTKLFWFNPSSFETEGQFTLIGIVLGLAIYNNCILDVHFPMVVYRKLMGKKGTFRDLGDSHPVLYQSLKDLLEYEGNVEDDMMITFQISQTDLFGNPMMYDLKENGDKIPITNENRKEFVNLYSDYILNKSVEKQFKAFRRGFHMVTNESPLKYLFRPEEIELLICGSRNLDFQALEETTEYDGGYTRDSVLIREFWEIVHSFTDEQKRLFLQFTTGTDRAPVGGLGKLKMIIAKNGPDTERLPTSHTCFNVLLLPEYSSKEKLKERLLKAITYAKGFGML
Assay: E6 rescue of 125I-polyubiquitin chain formation by E6APD543A
Type: biochemical
Conditions: 20 nM E6 protein
Description: E6AP-catalyzed ^125I-Ubiquitin Conjugation Assay: The E3 ligase activity of recombinant E6AP ligase was quantitated in kinetic assays under initial velocity conditions (Ronchi et al., (2013) J. Biol. Chem. 288, 10349-10360, Ronchi & Haas (2012) Methods Mol. Biol. 832: 197-218). Rates of E6AP-catalyzed ^125I-polyubiquitin chain formation were measured at 37° C. in incubations of 25-μl final volume containing 50 mM Tris-HCl (pH 7.5), 1 mM ATP, 10 mM MgCl2, 1 mM DTT, 10 mM creatine phosphate, 1 IU of creatine phosphokinase, 5 μM ^125I-ubiquitin (approximately 1.5×10^4 cpm/pmol), 50 nM human Uba1, and the indicated concentrations of UbcH7 and E6AP ligase (Siepmann et al., (2003) J. Biol. Chem. 278: 9448-9457; Baboshina et al., (2001) J. Biol. Chem. 276: 39428-39437). […]
Polyubiquitin chain formation was measured by excising lanes between the top of the resolving gel and the top of the stacker gel, representing anchored and free ^125I-polyubiquitin chains, respectively, and quantitating associated ^125I-ubiquitin by γ-counting. Absolute rates of ^125I-polyubiquitin chain formation were calculated from the associated radioactivity and the corrected specific radioactivity for ^125I-ubiquitin. Datum points represent single assay determinations, and complete data sets were evaluated by non-linear regression analysis using GraFit version 5.0 (Erithicus). […]

B1: E6 protein: recombinant human papilloma virus 16 E6 protein, 158 amino acids (protein)
chain: MHQKRTAMFQDPQERPRKLPQLCTELQTTIHDIILECVYCKQQLLRREVYDFAFRDLCIVYRDGNPYAVCDKCLKFYSKISEYRHYCYSLYGTTLEQQYNKPLCDLLIRCINCQKPLCPEEKQRHLDKKQRFHNIRGRWTGRCMSCCRSSRTRRETQL
effect on rate: no enhancement in rate
